Here are results for one substance from patent CN116472284A.

The target in the test is SARS-CoV-2 spike on ZsGreen SARS-CoV-2-pseudotyped lentivirus (SARS-CoV-2) (UniProt P0DTC2). The test is described as follows: cell-based or functional assay.

Take “Nb6-tri (trivalent Nb6 with two 20 amino acid linkers) (VHH)”: the IC50, inhibition of SARS-CoV-2 pseudotyped lentivirus infection turned out to be 1.2 nM and the fold gain of inhibitory activity against monovalent Nb6, pseudovirus turned out to be 2000 fold.
